Test results: PMC11969024 (2025)

B1: peptide HD2 (from tick evasin EVA4) / CCL22 (biotinylated, synthetic) (parent complex)
chain 1: EEDDYTAYAPLTCYFT
chain 2: GPYGANMEDSVCCRDYVRYRLPLRVVKHFYWTSDSCPRPGVVLLTFRDKEICADPRVPWVKMILNKLSQ

Variants of: B1

Variant | enrichment
chain 1 EEDDYTGYAPLTCYFT [chain 1 A7G] | 0.519 log2 (difference from the parental peptide)
chain 1 EEDDYTAYAPLTCYFQ [chain 1 T16Q] | 1.11 log2 (difference from the parental peptide)
chain 1 EEDDYTAYAPLTCYFG [chain 1 T16G] | 1.83 log2 (difference from the parental peptide)
chain 1 EEDDYTAYAPLTYYFT [chain 1 C13Y] | -2.53 log2 (difference from the parental peptide)
chain 1 EEDDYTAYAPLTHYFT [chain 1 C13H] | -3.89 log2 (difference from the parental peptide)
chain 1 EEDDYTAYAPLTPYFT [chain 1 C13P] | -6.43 log2 (difference from the parental peptide)
chain 1 EEDDYTAYAPLTIYFT [chain 1 C13I] | -3.42 log2 (difference from the parental peptide)
chain 1 EEDDYTAYAPLTGYFT [chain 1 C13G] | -5.34 log2 (difference from the parental peptide)
chain 1 EEDDYTAYAPLFCYFT [chain 1 T12F] | -1.02 log2 (difference from the parental peptide)
chain 1 EEDDYTAYAPLICYFT [chain 1 T12I] | -0.506 log2 (difference from the parental peptide)
chain 1 EEDDYTAYAPLYCYFT [chain 1 T12Y] | 2.35 log2 (difference from the parental peptide)
chain 1 EEDDYTAYAPLMCYFT [chain 1 T12M] | -0.275 log2 (difference from the parental peptide)
chain 1 EEDDYTAYYPLTCYFT [chain 1 A9Y] | -6.66 log2 (difference from the parental peptide)
chain 1 EEDDYTAYAPLTCFFT [chain 1 Y14F] | -0.133 log2 (difference from the parental peptide)
chain 1 EEDDYTAYAPLTCMFT [chain 1 Y14M] | -1.86 log2 (difference from the parental peptide)
chain 1 EEDDYTAYAPLTCRFT [chain 1 Y14R] | -0.04 log2 (difference from the parental peptide)
chain 1 EEDDYTAYAPLTCPFT [chain 1 Y14P] | -3.33 log2 (difference from the parental peptide)
chain 1 EEDDYTAYAPLTCSFT [chain 1 Y14S] | 0.0467 log2 (difference from the parental peptide)
chain 1 EEDDYTAYAPLTCWFT [chain 1 Y14W] | -0.554 log2 (difference from the parental peptide)

Variant | enrichment
chain 1 EEDDWTAYAPLTCYFT [chain 1 Y5W] | 1.1 log2 (difference from the parental peptide)
chain 1 EEDDITAYAPLTCYFT [chain 1 Y5I] | -6.63 log2 (difference from the parental peptide)
chain 1 EEDDATAYAPLTCYFT [chain 1 Y5A] | -7.07 log2 (difference from the parental peptide)
chain 1 EEDSYTAYAPLTCYFT [chain 1 D4S] | -6.14 log2 (difference from the parental peptide)
chain 1 EEDLYTAYAPLTCYFT [chain 1 D4L] | -6.02 log2 (difference from the parental peptide)
chain 1 EEDDYYAYAPLTCYFT [chain 1 T6Y] | -1.26 log2 (difference from the parental peptide)
chain 1 EEDDYGAYAPLTCYFT [chain 1 T6G] | 3.08 log2 (difference from the parental peptide)
chain 1 EEDDYCAYAPLTCYFT [chain 1 T6C] | -9.54 log2 (difference from the parental peptide)
chain 1 EEDDYIAYAPLTCYFT [chain 1 T6I] | -6.01 log2 (difference from the parental peptide)
chain 1 EHDDYTAYAPLTCYFT [chain 1 E2H] | -3.64 log2 (difference from the parental peptide)
chain 1 EKDDYTAYAPLTCYFT [chain 1 E2K] | -5.15 log2 (difference from the parental peptide)
chain 1 EADDYTAYAPLTCYFT [chain 1 E2A] | -2.53 log2 (difference from the parental peptide)
chain 1 EEDDYTAYAYLTCYFT [chain 1 P10Y] | -6.98 log2 (difference from the parental peptide)
chain 1 EEDDYTAYAPHTCYFT [chain 1 L11H] | 2.09 log2 (difference from the parental peptide)
chain 1 EEDDYTAYAPDTCYFT [chain 1 L11D] | -5.76 log2 (difference from the parental peptide)
chain 1 EEDDYTAYAPNTCYFT [chain 1 L11N] | -4.2 log2 (difference from the parental peptide)
chain 1 EEDDYTAYAPLTCYDT [chain 1 F15D] | -4.01 log2 (difference from the parental peptide)
chain 1 EEDDYTAYAPLTCYTT [chain 1 F15T] | 0.636 log2 (difference from the parental peptide)
chain 1 EEDDYTAYAPLTCYYT [chain 1 F15Y] | 1.03 log2 (difference from the parental peptide)

Variant | enrichment
chain 1 EEDDYTAYAPLTCYKT [chain 1 F15K] | 0.708 log2 (difference from the parental peptide)
chain 1 EEDDYTAYAPLTCYIT [chain 1 F15I] | -0.829 log2 (difference from the parental peptide)
chain 1 EEDDYTACAPLTCYFT [chain 1 Y8C] | -9.68 log2 (difference from the parental peptide)
chain 1 EEMDYTAYAPLTCYFT [chain 1 D3M] | -3.93 log2 (difference from the parental peptide)
chain 1 EEVDYTAYAPLTCYFT [chain 1 D3V] | -6.53 log2 (difference from the parental peptide)
chain 1 EESDYTAYAPLTCYFT [chain 1 D3S] | -4.38 log2 (difference from the parental peptide)
chain 1 EELDYTAYAPLTCYFT [chain 1 D3L] | -5 log2 (difference from the parental peptide)
chain 1 EETDYTAYAPLTCYFT [chain 1 D3T] | -3.61 log2 (difference from the parental peptide)
chain 1 EENDYTAYAPLTCYFT [chain 1 D3N] | -3.54 log2 (difference from the parental peptide)
chain 1 MEDDYTAYAPLTCYFT [chain 1 E1M] | -0.805 log2 (difference from the parental peptide)
chain 1 QEDDYTAYAPLTCYFT [chain 1 E1Q] | -0.35 log2 (difference from the parental peptide)
chain 1 HEDDYTAYAPLTCYFT [chain 1 E1H] | -2.89 log2 (difference from the parental peptide)
chain 1 GEDDYTAYAPLTCYFT [chain 1 E1G] | -1.59 log2 (difference from the parental peptide)
chain 1 VEDDYTAYAPLTCYFT [chain 1 E1V] | -1.89 log2 (difference from the parental peptide)
chain 1 DEDDYTAYAPLTCYFT [chain 1 E1D] | 2.17 log2 (difference from the parental peptide)
chain 1 TEDDYTAYAPLTCYFT [chain 1 E1T] | -2.09 log2 (difference from the parental peptide)
chain 1 SEDDYTAYAPLTCYFT [chain 1 E1S] | -1.77 log2 (difference from the parental peptide)
chain 1 AEDDYTAYAPLTCYFT [chain 1 E1A] | -1.32 log2 (difference from the parental peptide)
